Reference: patent US20240287172A1 (SCIRHOM, published 2024)
Changes are numbered by the printed parent chain.

B1: antibody 48 (antibody, V domains shown)
VH: QVQLQQSGTELVRPGTSVKVSCKASGYAFTNYLIEWVKQRPGQGLEWIGVINPGSGFTKYNEKFKGKATLTADKSSSTVYMHLSSLTSEDSAVYFCARGLYRAMDYWGQGTSVTVSS
VL: DIQMTQSPASQSASLGESVTITCLASQTIATWLAWYQQKPGKSPQLLIYGATTLADGVPSRFSGGGSGTKFSFKISSLQAEDFVSYYCQQLYSTPYTFGGGTKLEIK
notes: mouse IgG, kappa light chain; also called clone #48; purified antibody 48
B2: antibody 50 (antibody, V domains shown)
VH: B1 VH with T9A, T16A, T30S, V79A, H82Q
VL: B1 VL with A30G, G50A, T52A, T53S, S85N, L91I
notes: mouse IgG, kappa light chain; also called clone #50; purified antibody 50

Columns and labels:
hiR2-FL-D592A-T7 = target: T1, hiR2-FL-D592A-T7 (human, UniProt Q6PJF5 1-856); assay: FACS on MEF-DKO cells expressing the variant, 3 µg/ml antibody
T1 sequence: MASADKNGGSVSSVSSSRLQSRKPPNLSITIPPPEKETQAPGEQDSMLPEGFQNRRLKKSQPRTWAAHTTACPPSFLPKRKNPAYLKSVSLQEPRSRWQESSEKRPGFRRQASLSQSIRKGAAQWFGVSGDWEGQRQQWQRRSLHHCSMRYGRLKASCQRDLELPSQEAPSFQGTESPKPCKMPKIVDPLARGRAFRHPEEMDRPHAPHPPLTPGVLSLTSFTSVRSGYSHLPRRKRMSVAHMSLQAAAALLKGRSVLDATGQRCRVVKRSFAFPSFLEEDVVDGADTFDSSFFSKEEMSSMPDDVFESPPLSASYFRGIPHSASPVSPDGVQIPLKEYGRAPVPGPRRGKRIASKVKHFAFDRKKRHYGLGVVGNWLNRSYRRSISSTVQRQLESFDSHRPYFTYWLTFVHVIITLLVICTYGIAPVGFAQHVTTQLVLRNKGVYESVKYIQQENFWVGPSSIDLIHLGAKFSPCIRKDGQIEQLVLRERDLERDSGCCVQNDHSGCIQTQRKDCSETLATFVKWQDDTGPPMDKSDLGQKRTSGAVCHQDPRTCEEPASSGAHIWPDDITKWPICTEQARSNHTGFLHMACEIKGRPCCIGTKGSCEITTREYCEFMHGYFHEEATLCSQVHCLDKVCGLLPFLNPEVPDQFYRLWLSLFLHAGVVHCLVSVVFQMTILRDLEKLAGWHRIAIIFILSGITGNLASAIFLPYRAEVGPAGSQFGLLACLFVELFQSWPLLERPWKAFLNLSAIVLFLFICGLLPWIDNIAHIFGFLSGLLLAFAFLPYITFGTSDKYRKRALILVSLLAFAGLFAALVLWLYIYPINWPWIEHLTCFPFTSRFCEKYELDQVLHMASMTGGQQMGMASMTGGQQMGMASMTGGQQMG
Summary of the method: (§1)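 Primary stain: antibody 3 μg/ml, 1 h on ice; controls buffer alone. Secondary: PE anti-mouse IgG F(ab′)2 1:100, 1 h on ice, light-protected. Washes at 4° C; read by flow cytometry.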

hiR2-FL-D504A-T7 = target: T2, hiR2-FL-D504A-T7 (human, UniProt Q6PJF5 1-856); assay: as above
T2 construct: reduced surface expression reported
T2 sequence: T1 sequence with D504A, A592D
Summary of the method: as §1

Binder	loss of binding vs wild type (hiR2-FL-D592A-T7)	loss of binding vs wild type (hiR2-FL-D504A-T7)
B1	≥ 60%	≥ 60%
B2	≥ 60%	≥ 60%
